Results published in the nanobody polyreactivity screen of Harvey et al. (2022).

Assay: yeast display, Sf9 membrane polyspecificity reagent, FACS + sequencing; frameworks hold sequencing errors
Summary of the method: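 A synthetic nanobody library was expressed on Saccharomyces cerevisiae BJ5465 by galactose induction for 36–48 hours. The library was stained for 1 hour at 4 °C with 10% biotinylated, detergent-solubilized Sf9 membrane reagent and enriched with streptavidin microbeads before FACS. Low and high (top ~1%) gates were set on anti-HA fluorescence for expression and streptavidin fluorescence for reagent binding, and each polyreactivity label reflects the gate of origin.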

| Sequence | polyreactivity (PSR sort gate) |
| --- | --- |
| QVQLVDSGGGLVQAGGSLRLSCAASGSTFRVNAMGWYRQAPGKERELGAAISGSGSGTYYADSVKGRFTISRDNAKNTVYLLMNSLKPEDTAVYYCAKVPKSRGYVGGMDYWGQGTQVTVSS | low polyreactivity |
| QVQLVDSGGGLVQAGGSLRLSCAASGSTFTTNGMGGYRQAPGKERELVAAITRGGSTNYADSVKGRFTISRDNAKNTVFLQMNSLKPEDTAVYYCAAQNYWYYPRRFDYWGQGTQVTVSS | high polyreactivity |
| QVQLVDSGGGLVQAGGSLRLSCAASGSTFWFYAMGWYRQAPGNERELVAVISNSGSTYYADSVKGRFRISRDNAKNTVYLQMNSLKPEDTAVYYCNKDGGGDSYWYDYWGQGTQVTVSS | low polyreactivity |
| QVQLVDSGGGLVQAGGSLRLSCAASGSTFYFYAMGWYRQAPGKQRELVAAITWTDGDTYYADSVKGRFTISRDIAKNTVYLQMNSLKPEDTAVYYCATDSFWYEYDYWGQGTQVTVSS | high polyreactivity |
| QVQLVDSGGGLVQAGGSLRLSCAASGSTFYGYAMGWYRQAPGKERELVATISSSGAITYYADSVKWRFTISRDNAKNTVYLQMNRLKPEDPAVYYCARTGSLLSQVWYNYWGQGTQVTVSS | low polyreactivity |
| QVQLVDSGGGLVQAGGSLRLSCAASGSTSLKNAMGWSRQAPGKERELVAAISSGGSTYYADSVKGRFTISRDNAKNTVYLLMNSLKPEDTAVYYCAAKYLRGLGYWGQGTQVTVSS | high polyreactivity |
| QVQLVDSGGGLVQAGGSLRLSCAASGSTVAYYAMGLYRQPTVKERELVAAITRGGSTYYADSVKGRFTISRDNAMNTVYLHLNSLKPEDTAVYYCSAEFVVQYYVYGYTLGYDYWGQGTQVTVSS | high polyreactivity |
| QVQLVDSGGGLVQAGGSLRLSCAASGYTFDWYNRGWYRQAPGKERELVAAISASGVRTYYADSVKGRFTISRDNAKNTVYFQMNSLKPEDTAVYYCNRVYSTSRITQYEFDYWGQGTQVTVSS | low polyreactivity |
| QVQLVDSGGGLVQAGGSLRLSCAASGYTFEIYAIRWYRQAPGKERELVAAITRSGDSTYYADSVKGRFTISRDNSKNTVYLQMNSLKPEDTAVYDCNADYPGQYDSWGQGTQVTVSS | low polyreactivity |
| QVQLVDSGGGLVQAGGSLRLSCASSGNTFAGNARGWYRQAPGTERELVAAISRSGVTTRYADSVKGRFTISRDNAKNTVYLQMNSLKQEDTAVYYCNADPRLRQTRDYWGHGTQVTVSS | high polyreactivity |
| QVQLVDSGGGLVQAGGSLRLSCASSGSTFVLYAMGWYRQAPGKERELVAAITWSGDDTYYADSVKGRFTISRDNAKNTVYLQMNSLKPEDTAVYYCAAAYADWGQGTQVTVSS | low polyreactivity |
| QVQLVDSGGGLVQAGGSLRLSCASSGSTTVLYAKGWYRQAPGKEREMVAAISRSGGSTYYADSVKGRFTISRDNAKYTVYLQMNSLKPEDTAVYYCAARVPFSPYLRLFDYWGQGTQVTVSS | low polyreactivity |
| QVQLVDSGGGLVQAGGSLRLSCATSGYTFKAYAMVWYRQAPGKERELVAGISRSGGSTYYADSVKGRFTISRDNAKNTVYLQINSLKPEDTAVYYCAADSFSCETVVPSVLEFDYWGQGTQVTLSS | low polyreactivity |
| QVQLVDSGGGLVQAGGSLRLSCDASGSILAQYAMGWYRQAPGKEREFVAAISRRGVRTNYADSVKGRFTISRDNAKNTDYLQMNSLKHEDTAVYYCAAALYTPSLNSAFDYWGQGTQVTVSS | high polyreactivity |
| QVQLVDSGGGLVQAGGSLRLSCGASGRIFPYNAMGWYRQAPGKERELVAAINWSGGSTYYADSVKGRFTISRDTAKNTVYLQMNSLKPEDTAVYYCAVKTVRSSSRNYWRQGTQVTVSS | high polyreactivity |
| QVQLVDSGGGLVQAGGSLRLSCHASGRIVTSNAMGWYRQAPGKERELVAAISWSGGSTYYADSVKGRFTISRDNAKNTVYLQINSLKPEDTAVYYCAAYGTKWGRGFYITGYGYWGQGTQVTVSS | low polyreactivity |
| QVQLVDSGGGLVQAGGSLRLSCSASGYIFYANTMGWYRQAPGKEREFVATISWIGSTYYADSVKGRFTISRDNAKNTVYLQMNSLKPEDTAVYYCNARYTYRRYGRYDYWGQGTQVTVSS | high polyreactivity |
| QVQLVDSGGGLVQAGGSLRLSFAASGRIFAGYAMGWYRQAPGKERELVASIRYSGGSTYADSVKGRFTISRDNAKKTVYLQMNSLKPEDTAVYYSADGVQSVYNGEPGIILEFDYWGQGTQVTVSS | low polyreactivity |
| QVQLVDSGGGLVQAGGSLRLTCAASARTFHYYAMGWYREAPGKERELVAAITSSGGSTYADSVKGRFTISRDNAKNTVYLQMNSLKPEDTAVYYCARDRYDNPYDQELDYWGQGTQVTVSS | low polyreactivity |
| QVQLVDSGGGLVQAGGSLRLTCAASGFIFGYNTMGWYRQAPGKERELVAAIDSGGSTNYADSVKGRFTISRDNAKNTDYLQMNSLKPEDTAVYYCARESDWWREFPYDYWGQGTQVNVSS | low polyreactivity |
| QVQLVDSGGGLVQAGGSLRLTCAASGGIFKRYAMGWYRQAPGKERELVAAISGRGGGTYYADSVKGRFTISRDNAKNTVYLQMNSLKPEDTAVYYCNARLSWSAFGYWGQGTQVTVSS | high polyreactivity |
| QVQLVDSGGGLVQAGGSLRLTCAASGNTFYYYAMGWYRQAPGKERELVAAINRGGNTYYADSVKGRFTISRDNAKNTVYLQMNSLKPEDTAVYYCAKRKSNPGNRQEYYYWGQGTQVTVSS | low polyreactivity |
| QVQLVDSGGGLVQAGGSLRLTCAASGSIFNHKAMGGYRQAHGKERELVAAIRFSTGTTYYADSVKGRFTISRDYAMNTVYVQMNSLKPEDTAVYYWNAQGYFTDYWLSSYFRDFDYWGQGTHVTVSS | low polyreactivity |
| QVQLVDSGGGLVQAGGSLRVSCAASGLIFTRNAMGWYRPAPGKERELVAAISSSGGSTYYADSVKGRFTISRDNAKNTVYLQLNSLKPEDTAVYYCATDAAYLFTAYDYWGQGTQVTVSS | low polyreactivity |
| QVQLVDSGGGLVQAGGSLSLSCAASGITFYRYMGLYRQGPWKSRELVASITGRGGSTYYADSVKGRFTISRDNAKNTGYLEMNSLKPEDTAVYYCAAVFPTKSSTWYDYWGQGTQVTVSS | high polyreactivity |
| QVQLVDSGGGLVQAGGSLSLSCAASGSILRYYAMVWYRQAPGKERELVAAISRSGGSTYYADSVKGRVTISGDNAKNKVYLLMNRLKPEDTAVYYCANSDFGHHVTGFGYWGQGTQVTVSS | low polyreactivity |
| QVQLVDSGGGLVQAGGSRRLSCADSGSIFGDYDMGWYRQAHGKERELVATIRYSGGTTYYADSVKGRFTISRDNAKNTVYLQLISLKPEDTAVYYCNARVWLFWTSELDSWGQGTQVTVSS | low polyreactivity |
| QVQLVDSGGGLVQAGVSLRLSCAASGSTFVGYAIGSYSQAPGKERELVAAISRSGGRTYYADSVKGRFTISRDKAKNTVYLQMNSLKPEDTAVYYCYPYYIASTFDEWGQGTQVTVSS | high polyreactivity |
| QVQLVDSGGGLVQGGGSLRLSCADSGYIFGRNAMGWYRQATGKEREFVAALSSSGSSTYYADSVKGRFTISRDNEKNTDYLQLNSLKPEDTAVDYCNAVRYYLAVPYDSWGQGTQVTVSS | high polyreactivity |
| QVQLVDSGGGVVQAGGSLRLSCAASGFIFHRYAMGWYRPAPGKERELVASITRSGGSTYYADSVKGRFTISRDNAKNTVYLQMNSLKPEDTAVYYCAAQLPAYYKYPRHDYWGQGTQVTVSS | high polyreactivity |
